Measured values: the domain aggregation screens of Martell et al. (2025)

Assay: soluble fraction after stress (log2 fold change); higher = more stays soluble; pooled small domains, quantitative proteomics
Settings: stress: 75 degC
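Note: 20 min heating vs room temperature control held 20 min.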

Sequence	soluble fraction (log2)
HMGRPTLEQLLDRAQAMGVPRERYAAYADRRWGRGWRVNPHGRGRAWDELDRYRNDPAGYLDKIEVELNQL	-0.341
HMGRQVTVPNVTGMLVEEARAAISEAELWVDSPRAVQGEVTRQEPARGERLSPGQEVRIYTES	0.204
HMGRRSKAMLSSALDAVPGLGEMRRKALISQFGSLKKLRGATPEEIAAVPGIGPKLAAAVHEAVSG	-0.0903
HMGRSTQVPGVEKMTYSQAVQLLHDHGFRVDIRDSLYRDDIKPGHVIEQFPKAKSIVKPGRKIFLYINAV	-1.43
HMGRTGTVVVSPSLNVRTGPWGEIIGSLYNGNKVEIIGSSGDWYQISFGGKTAYVHSDYVVDGG	-1.26
HMGSDAFDISKLNLVGKTKESAESLLKENGFSVDTKEEASDTAAKGTVISYSPTKPKNGERVTLTVSSGK	0.385
HMGSDQEAAMARQDRLSTLVDYVVERGSVHVDDIVADLGVSPATVRRDLDALAAQQLIIRTRGGATANHT	0.034
HMGSGKGAAHTILGISADASDDEIKAAWRKLVQENHPDKLVSQGLPDEFVQAATDRLRLINTAYQSMLNRP	-0.0948
HMGSGLAAAEKIRKAHPEIKIVVATSLIDTQVLARAKAVGADSLWYKDGDEGTLMQVVRRTMAGDHIFP	-0.038
HMGSIGAMLSSPELYGKLATNPATRGFLSQPDFIAMLTDVQKNPDKFGSYMSDPRMMQVLSVALG	-0.231
HMGSIRDIIVQYLSKFDDPQPAAKIVEYVQQYRDTTESSIRSSMGSGDQFVQFSGGLYGLKDKTYAAWYSI	-0.916
HMGSLKISNPVKDTLWIQGVDGLKSIEIYSSTGQLVKTILGNQGDVSSLPKGVYFLKINTPSESLTAKIIK	-1.28
HMGSLPPPKDGTTIYVVKPGDSLWRISGKFFGNPLFWPRLWEINPNIDNPNKIYPGDVISLKP	0.24
HMGSLVKLQSAAELHQAGRSAEAVPILLEVLATNPRLVDGWEILANALEKLGRLDEALAALKKTVALSPPG	-1.55
HMGSNENTIREYFDSLIASASKREIMDANPTMSQRTVERILQKLQAEGYVEKIGAARSTRYRRA	-0.0404
HMGSQLYTLEVEADEKISLIENNPLLIQKIYLKDNNLFSYKIASSSKTEIASIEKELEKNPSIKRLETA	-0.086
HMGSQQIEEGMRRLVASGALRPGASVPSVRDLARDLQVNPATVVRAYQRLVDAGLLVVRRGEGTFVAE	-1.77
HMGSSLLSPKEREVLQLLAGNLSNKQIALAMGVSDETIKWHLRNLFGKLNAGGRKHLIDRARMLGLLAAA	-1.61
HMGSVHDAATDRIREMILGGQFEPGERLRQDDLATSLGVSTMPVREALRQLQAEGLVVFYPRKGAVVAR	0.168
HMGTAEDYLLPRRAEILSIIRDHEFANFDLIRRRFLAVNERTLRYDLKKLSDLGLIKKLGKTRGVYYRAAK	-1.84
HMGTAVKAPMPGTILKVNVTAGQSVKAGDIMFILEAMKMENEIVAPSDGTVSQVVAAKGSSVATDDVLAYL	-0.586
HMGTDGLKDIVLEILKEHPNQLAELIDGKQKVLGFLVGQVMKKTNGAANPKEVNEIIQGEIKK	0.179
HMGTELSYSEFLNKVEAGEVTNVTIRGPEITFQTGNSSYTTYAPDDPKLIEHLTAKGVAIKAGP	0.608

Sequence	soluble fraction (log2)
HMGTGELLVHVIGAVHSPGVVRLPTGARVVDAIDAAGGAREDAQTEQLNLARLVDDGEQVRVPVVGESVD	0.081
HMGTGIKQVNVVSVIGQDEETAKTTLTNLGLKVNVTYATSTSDNGKVTKQSIDAGKTVDEGTSVTITVNKV	≥ 1.04
HMGTHSAEQVRAAIRAIVAAEDAANPLSDARITELLAMRGIAAARRTVMKYREQLGIPSSAKRRR	-1.94
HMGTHVVQEGEYLDLIIEKTIPGSPIRKDLLRKAFVKLNPSAFGGRGNPNYIFARKKLKVPSVEDLKAVIF	0.127
HMGTIEEYSKYLINQYFDSLKKPMDAMTTSEKIEIVKSLDKKGIFNLKGSVGELAKRFNTSEKTIYRYLSS	-0.202
HMGTKRWELPRRVQQMATQHGKSISTAAAEELVSRSGENTRMLDNDLVKLAQMVEAPQIELADVERWIVR	0.207
HMGTLPSLAPSGEKTVRLPNLAGWSLRETMEILQKGGLQLLPIGSGISFKQSPPPGTTLNEGDAVTVWF	0.00884
HMGTNTTGWIKIADDWKYIDSNGEYTVNDWRQSADGGWYYLGYNGNMLKNQTTPDGYYVDAEGLWDGMSPA	-0.54
HMGTPEQVVVSSVLKETNEIVLKWPADGFMAKYKMDNLNLNFEPVHGQGVMGYFIGSRLIKLELV	-1.43
HMGTPSAEELAFSAQKGNAVMRIMEIREKYIENGGQISDEERNEIERLIAIYYPKASIFDYLPMMG	-0.367
HMGTSFEDIDRAVKSVRKPETDEAEKLHAGKTFKDIAETELFQKLTESFAGISDRVNEVIDLYTARAAE	0.188
HMGTSSAEIAAELRAQIFAGELRPGEMLPSAREITGTWNVAIATASRVHALLRSEGLATPVPGVGTVVAT	0.223
HMGTTAWISTKTANGSVNIRTGPGTGYGVIGWALNGDKLEVLSRGTSWHYVKLVKNGKIGYVSASYVSFTQ	-3.41
HMGTTKGVVDVTVPNGRASQHVKLVVIDDDGGRVVYDGTNAPGDRIVKSVSGSGNVRVQIYLNNALVQEQS	-0.491
HMGTTMLEVPNFVGEVFKEIDPEKYPNLRLVDSDYTYSNEYEAGKVISQDPVARTQVAEGSTVKLVIS	0.319
HMGTVISVDKARSIALAKVPGASANDIRIHLDRDDGRQIYEGEIYYNRMEYEFEIDASTGTIIEWSAEHW	-2.33
HMGTVQSVDRALLLLSEIGREPGGLVDLSTRVRLATSTTGRILATLEHAGAVVRGDDGIYHIGPLVHGMVS	-2.04
HMGTYSKQDLLQLIGRYPDGIGKREINLAFSKGTKIRNLLNIELNELLNERLITLSQGGLYIKP	-1.92
HMGVAFAPVEKIKHTKTGNELYAVKLAGRVEAEVFGQLRQKAKEYDGYYSKFSRAFLFSTPEDAEAFRAE	-0.294
HMGVDIAEHDGQPAVSIRKGAAESVAQWVKDQGGTFPQEVEMTVQNVARAGGTPLVVARGRDVLGVIYLKD	-0.0119
HMGVDKLTPREREVLALMAQGASNREIEGKLVLTAGAVSKHVANVFMKLGFSPEDENRRVKAVLAWLRTK	-2.86
HMGVGIEALAVEVDRIRQVLTGGGALSDIQLFSQLKALGEVKTALSSMTDPRARELEKRVAQLLEASLRT	-0.708
HMGVKHKHKGAGELLAALRTMFPNSSVSTLRKMLTQGRVVLNGEVVHRAKHELTDGDTIEVLERQRAER	0.0384

Sequence	soluble fraction (log2)
HMGVKIELNENEQAIFAAMQKQVEAVLPDLRAQFADMSNKAWDNSVKTLTKNNLLKVSKEAEILFIRL	-0.939
HMGVKTDKYYYQMATETRVNKHYGLSNQYIATLISEYPRSPLIPNASILSKKNNADLALIDQSINQR	-0.515
HMGVLSPRQSQILALVAQGLGNREIAERLHIAPTTARDHVQAIMRRLNVNSRAAAAVMGVKLGLI	-1.92
HMGVNEGVNKLFKTIQETPGKRMPYYALATDVPEKTIERWLKQLREEGKIEFKGSAKTGGYFVIDK	-0.000624
HMGVRDIRIFERNNSFFVNAEIRGEAQLSVPITRTDYQLFKENKIDALSLVEKYYAEELNASNEMK	0.234
HMGVSLNELAYRRFKQALVTLSYKPGEYLNTAQVMNDLDMGRTPINQAIHRLANEGLLQVIPRKGVMVS	-2.24
HMGVTDLFAVLGFPRSPWLDAEELKQRHHALMADEASANSSPTILNEARRTLQNPALRIRHFLALEFPDH	-0.425
HMGVYDLIYLGYGINVEKEELVDQNISIIRRYANIFDPNGDIKGSTNPTYASNTAVLFNEAKFIIDGYD	-3.7
HMGWQPDPLTTRERLVAELATQASNAQIAEQLHLSVRTVEGHLAHVYTKLGITTRRELPAALAGAR	-1.55
HMGWTTPAGIAVGMDKSVLQDAYGKEDDTFQDKGILYYQYFVHPSRMSGLSFGIKNDKIVSITAYMD	-2.02
HMGYDDLEPFDANGRLRWSDQELVLAFGRHRGATLRTLELNDPSYLRWLLSGNGPLEQQDIQRLEQILES	-1.55
HMGYDLLFQQALGFHEQGRLNEAENIYRQILETAPNNPDILNLLGLIAQQKGLHAQAVDYFYQAIRL	-1.89
HMGYDVAEVKFRLIKLLRDSKIGISGVEISERLGINRVTMTKYLNIFSAEGVIGEKNIGNVNLWFVYEGIE	-1.62
HMGYQLSLEAQSQLKALGLTSEYITRILDEADNRQPIPGTSRTVYSLNGYQVEFSHSDQQVIRIARG	-1.14
HMGYSDEIGEFIKKLRTENHLTQKEFADKYGVTYQAVSKWENGKNLPDMSLIKQMSEDFNIGIDELLDGEK	-0.00865
HMGYTLDVAHGVTEDMNFSEAFATAREEVGPGGIFYWHGKPYGTYYENEWNAMDEEDKAEYWDAVGRTTA	0.0888
HMHANSDVEQLMQMGIQRLNFQRYSDALLIFNQIIENFPDYAEAWNKRATLHYLLGNLDKSIADIEQTLE	-2.45
HMHAPIAELKKVFKEEFADQEVTVRQLAGSVLLSGNVKTAELRENLESVAKQFFPRVINNLKLI	-0.444
HMHDAKAEIIRLSALLTEYQRSYYIDGHSQVSDLEYDRLFDRLVALETSHPELREADSPTQRV	-0.917
HMHDAKTQLQEEAARRGLPAPVYTRIGQEGPDHAPRFRVRADVGPHQAEAVAGSLKLAQAEAARAILRQMP	0.132
HMHDITPAVAETFKQLRAERGLSLSQAAQLTGVSKAMLGQIERGQSSPTVSTLWKIATGFNVAFSVFL	-2.56
HMHDLGEQIIEKLRASGGISTLTDKSDPDAIYRQFKVSKKKYKQALGTLYKSRRITLAPNQIKLA	-0.293
HMHDPLATLTPREHEVMSLMAEGRTNAAIAQALVIGTGAVEKNVTSIFQKLGLDDSGTDHRRVLAVLAWLQ	-2.13
